{"source": "patent US20260242482A1", "about": "(ONO PHARMACEUTICAL, published 2026)", "binders": {"B1": {"name": "human CD80 (ligand)", "chain": "VIHVTKEVKEVATLSCGHNVSVEELAQTRIYWQKEKKMVLTMMSGDMNIWPEYKNRTIFDITNNLSIVILALRPSDEGTYECVVLKYEKDAFKREHLAEVTLSVKADFPTPSISDFEIPTSNIRRIICSTSGGFPEPHLSWLENGEELNAINTTVSQDPETELYAVSSKLDFNMTTNHSFMCLIKYGHLRVNQTFNWNTTKQEHFPDNLLPSWAITLISVNGIFVICCLTYCFAPRCRERRRNERLRRESVRPV", "notes": "Expressed on IIAdL1, DOdKO or DOdPD cells; also called hCD80"}, "B2": {"name": "human CD80 mutant (having I92E and L104E mutations) lacking the ability to bind to human PD-L1 (ligand)", "chain": "B1 chain with I58E, L70E"}, "B3": {"name": "human CD80I92E (ligand)", "chain": "B1 chain with I58E"}, "B4": {"name": "human CD80L104E mutant (ligand)", "chain": "B1 chain with L70E"}, "B5": {"name": "soluble mouse PD-1 extracellular region (PD-1-EC) protein (receptor)", "chain": "LEVPNGPWRSLTFYPAWLTVSEGANATFTCSLSNWSEDLMLNWNRLSPSNQTEKQAAFCNGLSQPVQDARFQIIQLPNRHDFHMNILDTRRNDSGIYLCGAISLHPKAKIEESPGAELVVTERILETSTRYPSPSPKPEGRFQDYKDDDDK", "notes": "domain: five-stranded coiled coil domain; Soluble chimeric protein from 293T or Plat-E culture supernatant; also called mouse PD-1-EC; mPD-1; not shown: five-stranded coiled coil domain of cartilage oligomer matrix protein (Terskikh et al. 1997), fused to the C-terminus"}, "B6": {"name": "human PD-1-EC (receptor)", "chain": "LDSPDRPWNPPTFSPALLVVTEGDNATFTCSFSNTSESFVLNWYRMSPSNQTDKLAAFPEDRSQPGQDCRFRVTQLPNGRDFHMSVVRARRNDSGTYLCGAISLAPKAQIKESLRAELRVTERRAEVPTAHPSPSPRPAGQFQDYKDDDDK", "notes": "domain: five-stranded coiled coil domain; also called human PD-1 extracellular region soluble chimeric protein; hPD-1; not shown: five-stranded coiled coil domain of cartilage oligomer matrix protein (Terskikh et al. 1997), fused to the C-terminus"}, "B7": {"name": "mouse CD80 with the L96E and L107E mutations (ligand)", "chain": "VDEQLSKSVKDKVLLPCRYNSPHEDESEDRIYWQKHDKVVLSVIAGKLKVWPEYKNRTEYDNTTYSLIIEGLVLSDRGTYSCVVQKKERGTYEVKHLALVKLSIKADFSTPNITESGNPSADTKRITCFASGGFPKPRFSWLENGRELPGINTTISQDPESELYTISSQLDFNTTRNHTIKCLIKYGDAHVSEDFTWEKPPEDPPDSKNTLVLFGAGFGAVITVVVIVVIIKCFCKHRSCFRRNEASRETNNSLTFGPEEALAEQTVFL"}, "B8": {"name": "mouse CD80 with the L96E mutation (ligand)", "chain": "B7 chain with E70L", "notes": "also called CD80 L96E"}, "B9": {"name": "mouse CD80L107E (ligand)", "chain": "B7 chain with E59L", "notes": "also called L107E mutant"}}, "key": {"human PD-L1 [1]": {"molecular_target": "T1, human PD-L1 (human, UniProt Q9NZQ7 19-290)", "T1 construct": "Expressed on IIAdL1 or DOdKO cells; also called hPD-L1", "T1 sequence (Q9NZQ7 19-290 limits assumed)": "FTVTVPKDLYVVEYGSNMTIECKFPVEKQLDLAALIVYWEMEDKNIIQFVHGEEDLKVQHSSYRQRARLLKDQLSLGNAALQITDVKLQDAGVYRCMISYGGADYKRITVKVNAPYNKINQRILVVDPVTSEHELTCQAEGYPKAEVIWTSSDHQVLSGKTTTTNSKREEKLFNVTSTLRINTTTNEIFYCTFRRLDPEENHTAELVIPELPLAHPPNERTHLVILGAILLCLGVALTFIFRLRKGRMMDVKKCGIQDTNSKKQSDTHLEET", "experiment": "co-immunoprecipitation, IIAdL1 cells expressing the human molecules, western blot"}, "human PD-L1 [2]": {"molecular_target": "T1, human PD-L1", "experiment": "as described for the mutants of Test 4; no separate experiment told for the double mutant"}, "human PD-L1 [3]": {"molecular_target": "T1, human PD-L1", "experiment": "flow cytometry; PD-1-EC staining of IIAdL1 cells (FIG. 29)"}, "mouse CD80": {"molecular_target": "T2, mouse CD80 (mouse, UniProt Q00609 38-306)", "T2 construct": "Overexpressed on IIAdL1 cells or DOdKO cells; also called mCD80", "T2 sequence": "B7 chain with E59L, E70L", "experiment": "flow cytometry, IIAdL1 cells expressing CD80 alone, soluble PD-1-EC"}, "mouse PD-L1 [4]": {"molecular_target": "T3, mouse PD-L1 (mouse, UniProt Q9EP73 19-290)", "T3 construct": "Overexpressed on IIAdL1 cells or DOdKO cells; also called mPD-L1; CD274", "T3 sequence (Q9EP73 19-290 limits assumed)": "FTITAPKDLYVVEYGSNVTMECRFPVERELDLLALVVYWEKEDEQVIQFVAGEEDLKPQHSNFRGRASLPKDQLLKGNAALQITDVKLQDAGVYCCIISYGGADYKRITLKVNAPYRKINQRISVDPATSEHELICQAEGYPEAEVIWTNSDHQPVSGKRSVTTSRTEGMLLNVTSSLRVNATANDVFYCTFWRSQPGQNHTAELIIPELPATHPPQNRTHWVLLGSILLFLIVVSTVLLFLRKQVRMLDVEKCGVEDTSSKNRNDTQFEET", "experiment": "flow cytometry; DOdKO-mPD-L1/mCD80 cells pretreated with 10 ug/ml TKMG48 or control IgG, stained with mouse PD-1-EC; (TKMG48 treated group-control group)/(control IgG group-control group)"}, "human PD-L1 [5]": {"molecular_target": "T1, human PD-L1", "experiment": "flow cytometry; DOdKO-hPD-L1/hCD80 cells pretreated with 30 ug/mL TKMF5, stained with human PD-1-EC"}, "mouse PD-L1 [6]": {"molecular_target": "T3, mouse PD-L1", "experiment": "as described for the mutants of Test 3; no separate experiment told for the double mutant"}, "mouse PD-L1 [7]": {"molecular_target": "T3, mouse PD-L1", "experiment": "as described for the mutants of Test 3 (PD-1-EC staining of cells co-expressing PD-L1)"}}, "note": "Changes are numbered by the printed parent chain. Numbers in names are those of the source."}
{"binder": "B1", "values": [{"measurement": "binding result", "setting": "human PD-L1 [1]", "value": "binds"}]}
{"binder": "B2", "values": [{"measurement": "binding result", "setting": "human PD-L1 [2]", "value": "no binding"}]}
{"binder": "B3", "values": [{"measurement": "binding result", "setting": "human PD-L1 [3]", "value": "no binding"}]}
{"binder": "B4", "values": [{"measurement": "binding result", "setting": "human PD-L1 [3]", "value": "no binding"}]}
{"binder": "B5", "values": [{"measurement": "binding result", "setting": "mouse CD80", "value": "no binding"}, {"measurement": "amount of binding (mean fluorescence intensity) after TKMG48 pretreatment relative to control IgG pretreatment", "setting": "mouse PD-L1 [4]", "value": "~10.1", "unit": "times"}]}
{"binder": "B6", "values": [{"measurement": "ratio of cells that bound to PD-1-EC", "setting": "human PD-L1 [5]", "value": "~50", "unit": "%"}]}
{"binder": "B7", "values": [{"measurement": "binding result", "setting": "mouse PD-L1 [6]", "value": "no binding"}]}
{"binder": "B8", "values": [{"measurement": "binding result", "setting": "mouse PD-L1 [7]", "value": "no binding"}]}
{"binder": "B9", "values": [{"measurement": "binding result", "setting": "mouse PD-L1 [7]", "value": "no binding"}]}
